Experimental data as given in paper PMC2911377.

Biological target: amino terminal enhancer of Split (AES), HA tagged (human) (UniProt Q08117)
UniProt Q08117, sequence (Q08117 whole entry): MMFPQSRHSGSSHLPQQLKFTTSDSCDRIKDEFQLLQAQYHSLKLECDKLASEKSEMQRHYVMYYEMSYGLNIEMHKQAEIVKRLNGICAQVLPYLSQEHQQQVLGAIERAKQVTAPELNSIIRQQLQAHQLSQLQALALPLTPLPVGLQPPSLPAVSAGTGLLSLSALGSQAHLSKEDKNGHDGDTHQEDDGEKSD

Substance “GFP-LRP6-ICD-myc-NLS (wild type LRP6-ICD with a nuclear localization signal) (domain or fragment)” has a repression of AES mediated TOP (TOPflash, TCF/LEF-1 luciferase reporter) transcription in HEK 293T cells co-transfected with AES-HA and GFP-LRP6-ICD-NLS, 24 hrs of 138%.
